The values below come from patent publication US10253089B2, “Matrix metalloproteinase cleavable protein polymers for cancer gene therapy” (The University of Utah Research Foundation, priority 2012, dated 2019).

One series concerns the target T1, MMP-2 (Homo sapiens, UniProt P08253).
T1 sequence (P08253 110-660): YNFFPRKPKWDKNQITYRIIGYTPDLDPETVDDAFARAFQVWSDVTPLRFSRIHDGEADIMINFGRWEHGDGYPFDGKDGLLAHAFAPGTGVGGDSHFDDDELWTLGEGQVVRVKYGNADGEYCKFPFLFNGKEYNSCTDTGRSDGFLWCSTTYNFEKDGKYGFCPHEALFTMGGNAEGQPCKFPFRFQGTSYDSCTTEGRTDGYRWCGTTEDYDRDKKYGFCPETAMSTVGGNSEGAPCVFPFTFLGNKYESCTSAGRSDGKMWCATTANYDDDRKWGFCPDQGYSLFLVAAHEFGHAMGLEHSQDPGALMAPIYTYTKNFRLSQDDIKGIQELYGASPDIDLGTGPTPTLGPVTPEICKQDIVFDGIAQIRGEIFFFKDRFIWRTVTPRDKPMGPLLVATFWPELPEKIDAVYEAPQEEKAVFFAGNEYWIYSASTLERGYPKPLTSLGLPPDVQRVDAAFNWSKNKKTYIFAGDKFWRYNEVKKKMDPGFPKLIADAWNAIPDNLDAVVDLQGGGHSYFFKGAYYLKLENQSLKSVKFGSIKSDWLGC
Briefly: Hydrogel protein loss in the presence of MMP-2. As to conditions: 10 wt % hydrogel, MMP-2 10 nM, two weeks. It is filed as biochemical. On the procedure:
The properties of hydrogels formed from SELPs are strongly dependent on the shear applied to liquid solutions of polymer prior to gelation. SELPs solubilized in phosphate buffered saline were loaded into a 1 ml luer-lock syringe connected at the hub to another 1 ml luer-lock syringe via two 27G needles, joined by a section of 0.0155″ HPLC tubing. The SELP solution was passed through this device at maximum hand pressure for five full bidirectional cycles, at which point it was used for studies.
Hydrogels were characterized for their sensitivity to MMP degradation in the context of protein loss from the gel, changes in mechanical properties, and release of model 100 nm fluorescent nanoparticles. […] Syringes were sealed with Parafilm and allowed to gel upright overnight at 37° C. […]
Protein loss was quantified using a Modified Lowry Assay Kit, and using known SELP solutions for the standard curve instead of the supplied bovine serum albumin, as SELP contains few Lowry-reactive amino acids. The mechanical properties of SELPs were evaluated in cyclic compression at 1 Hz and 1% strain, with ˜10 grams of preloading applied for 10 minutes to eliminate stress relaxation. Stress was measured using a 2 lb load cell. Release was quantified by measuring the fluorescence of release samples with an excitation/emission of 260/515. […]

For series [1], the system named is JHU-022 head and neck cancer xenografts. The series can be described thus: Quantitative viral gene expression (β-gal) in vivo, tumor and liver. Also on record: species or system athymic nude (nu/nu) mice. As to conditions: 4 wt %. The procedure: Head and neck cancer xenografts were established by subcutaneously injecting 2×10^6 JHU-022 cells suspended in 200 μl Phosphate Buffer Saline (PBS) bilaterally in the flank of athymic nude (nu/nu) mice. Tumors were allowed to grow for two weeks to reach an average diameter of 7 mm. […] Virus-polymer solutions were prepared by thawing SELP and virus stocks and mixing them gently with physiological saline. Mice were anesthetized using 4 wt % isofluorane mixed with oxygen, and intratumorally injected with 25 μl of the polymer-virus solutions using a Hamilton syringe. Mice were euthanized on days 7, 14, and 21 and tumor and liver tissue were isolated. CPRG β-gal colorimetric assays were performed as described previously in the scientific literature. […] Recovered tissue lysates were then centrifuged for 45 minutes at 14,000 rpm and, subsequently, upper aqueous layers were used for β-gal quantification. […]
Polymer structures and compositions that formed robust hydrogels were selected for matrix-mediated delivery of reporter genes in a murine model of HNSCC. […] Animals were sacrificed at days 7, 14, and 21 for analysis of gene expression, and analyzed using a colorimetric tissue lysate assay for β-galactosidase. […]

B1: SELP815K: silk-elastin-like protein polymer, longer silk units, fifteen elastin units, lysine elastin unit; monomer repeated 6 times (SEQ ID NO. 21) (protein)
chain: MDPVVLQRRDWENPGVTQLNRLAAHPPFASDPMGAGSGAGAGSGAGAGSGVGVPGVGVPGVGVPGVGVPGKGVPGVGVPGVGVPGVGVPGVGVPGVGVPGVGVPGVGVPGVGVPGVGVPGVGVPGVGVPGAGAGSGAGAGSGAGAGSGAGAGSGAGAGSGAGAGAGSGAGAGSGAGAGSGVGVPGVGVPGVGVPGVGVPGKGVPGVGVPGVGVPGVGVPGVGVPGVGVPGVGVPGVGVPGVGVPGVGVPGVGVPGVGVPGAGAGSGAGAGSGAGAGSGAGAGSGAGAGSGAGAGAGSGAGAGSGAGAGSGVGVPGVGVPGVGVPGVGVPGKGVPGVGVPGVGVPGVGVPGVGVPGVGVPGVGVPGVGVPGVGVPGVGVPGVGVPGVGVPGAGAGSGAGAGSGAGAGSGAGAGSGAGAGSGAGAGAGSGAGAGSGAGAGSGVGVPGVGVPGVGVPGVGVPGKGVPGVGVPGVGVPGVGVPGVGVPGVGVPGVGVPGVGVPGVGVPGVGVPGVGVPGVGVPGAGAGSGAGAGSGAGAGSGAGAGSGAGAGSGAGAGAGSGAGAGSGAGAGSGVGVPGVGVPGVGVPGVGVPGKGVPGVGVPGVGVPGVGVPGVGVPGVGVPGVGVPGVGVPGVGVPGVGVPGVGVPGVGVPGAGAGSGAGAGSGAGAGSGAGAGSGAGAGSGAGAGAGSGAGAGSGAGAGSGVGVPGVGVPGVGVPGVGVPGKGVPGVGVPGVGVPGVGVPGVGVPGVGVPGVGVPGVGVPGVGVPGVGVPGVGVPGVGVPGAGAGSGAGAGSGAGAGSGAGAGSGAGAGSGAGAMDPGRYQDLRSHHHHHH
modifications: monomer repeated 6 times; Hybrid of Homo sapein and Bombyx mori
On to B1, for which the “higher protein loss compared to control” value with MMP-2 is “statistically insignificant”. Besides, the “tumor transfection (β-gal) compared to free virus” value in series [1] (Ad.CMV.LacZ 5×10^8 PFU intratumoral, week one) is “more than 50 fold”. Moreover, the “difference in tumor vs. liver transfection” value in series [1] (Ad.CMV.LacZ, week two) worked out at 55 fold.
